Test results taken from US20230348578A1, “CONFORMATION-SPECIFIC ANTIBODIES THAT BIND TAU PROTEIN AND USES THEREOF” (Beth Israel Deaconess Medical Center, Inc., priority 2020, published 2023).
Numbering of substitutions follows the chain as printed.

B1: HT1: humanized cis-pThr231-tau mAb; heavy chain variable domain SEQ ID NO: 25, light chain variable domain SEQ ID NO: 16 (antibody, V domains shown)
VH: QVQLVQSGAELKKPGASVKMSCKASGYTFTSYWIHWVKQRPGQGLEWIGVIDPSDSYTRYNQKFKGRATLTVDTSASTAYMQLSSLTSEDSAVYYCTTWEVDYWGQGTTVTVSS
VL: DVVMTQSPLSLPVTLGQPASISCRSSQSLVHSDGNTYLHWYLQKPGQSPQLLIYKVSNRFSGVPDRFSGSGSGTDFTLKISRVEAEDVGVYFCSQSTHVPWTFGGGTKVEIK
B2: HT2: humanized cis-pThr231-tau mAb; heavy chain variable domain SEQ ID NO: 26, light chain variable domain SEQ ID NO: 16 (antibody, V domains shown)
VH: B1 VH with L11V, Q82E, T87R, S91T, T109L
VL: B1 VL
B3: HT3: humanized cis-pThr231-tau mAb; heavy chain variable domain SEQ ID NO: 27, light chain variable domain SEQ ID NO: 16 (antibody, V domains shown)
VH: B1 VH with L11V, M20V, K38R, A68V, Q82E, T87R, S91T, T109L
VL: B1 VL
B4: HT8: humanized cis-pThr231-tau mAb; heavy chain variable domain SEQ ID NO: 28, light chain variable domain SEQ ID NO: 18 (antibody, V domains shown)
VH: B1 VH with L11V, M20V, K38R, A68V, L70I, V72R, Q82E, T87R, S91T, T109L
VL: B1 VL with F60D
B5: HT10: humanized cis-pThr231-tau mAb; heavy chain variable domain SEQ ID NO: 26, light chain variable domain SEQ ID NO: 19 (antibody, V domains shown)
VH: B1 VH with L11V, Q82E, T87R, S91T, T109L
VL: B1 VL with F92Y
B6: HT18: humanized cis-pThr231-tau mAb; heavy chain variable domain SEQ ID NO: 29, light chain variable domain SEQ ID NO: 20 (antibody, V domains shown)
VH: QVQLVQSGAEVKKPGSSVKVSCKASGYTFTSYWIHWVRQAPGQGLEWMGVIDPSDSYTRYNQKFKGRVTITRDTSMSTAYTELSSLRSEDTAVYYCTTWEVDYWGQGTLVTVSS
VL: DIQMTQSPSTLSASVGDRVTITCRSSQSLVHSDGNTYLHWYQQKPGKAPKLLIYKVSNRFSGVPSRFSGSGSGTEFTLTISSLQPDDFATYYCSQSTHVPWTFGQGTKLEIK

Columns and labels:
[1] = target: cis pT231-tau (P-tau peptide, pure cis or cis-locked); experiment: Biacore assay of binding affinity of humanized cis mAb variants
Source text: We next started to characterize and select lead humanized mAbs. We expressed and purified humanized mAb variants using a CHO expression system. We transfected over 45 plasmid DNA pairs of heavy and light chain cDNAs into CHO cells to express over 225 humanized cis mAb variants in various combinations. To evaluate the target binding specificity and affinity of our mouse mAbs, we established a simple and quantitative ELISA to screen the clones using a wild-type P-tau peptide and its pure cis or cis-locked, and pure trans counterparts and determined the binding affinity for selected clones using Biacore assays. We screened over 200 humanized cis mAb variants. […] Furthermore, one-tenth of humanized cis mAb variants were also able to recognize cis P-tau in human AD and TBI brains based on immunostaining analysis.
(§1) The binding affinity of selected humanized antibody clones was determined by Biacore assay using a wild-type P-tau peptide and its pure cis or cis-locked, and pure trans counterparts. The […] of the selected humanized cis mAb variants was determined by assessing their ability to eliminate cis P-tau in stressed neurons in cell cultures. Functional restoration of selected clones was determined by their ability to restore risk-taking behavior after 3-hit or 7-hit repetitive TBI in mice, as assayed by elevated plus maze.

[2] = test system: mice (C57/BL6) after 3-hit repetitive TBI; experiment: 3-hit repetitive mild TBI in mice, elevated plus maze; assay type: in vivo; conditions: risk-taking behavior, HT13 chimera control = 1.0
Method: as §1
(§2) An initial sign of brain dysfunction following traumatic brain injury (TBI) is an increase in risk-taking behavior. To determine the therapeutic effect of the herein described cis pT231-tau monoclonal antibodies in restoring brain function 11-week old mice (C57/BL6) mice were subjected to elevated plus maze behavioral assays designed to evaluate risk-taking behavior following repetitive mild TBIs. The behavioral assays were performed as previously described in Walf, Nature Protocols 2(2): 322-328, 2007 (FIG. 7). […] All other mice sustained mild TBI (rmTB) either three times, once a day for three consecutive days, or seven times once a day for five consecutive days and two consecutive times on days 8 and 9. In the 3-hit TBI experiment (FIG. 8A), nine groups of mice received three doses (250 ug/mouse) via intraperitoneal injection of either IgG control (n=10 mice) or one of the following humanized cis pT231-tau monoclonal antibody variants C113 (n=5 mice), HT1 (n=10 mice), HT2 (n=10), HT3 (n=10), HT8 (n=5), HT10 (n=10), HT13 (n=15), HT18 (n=4). Treatment with IgG or humanized cis-pT231-tau monoclonal antibody was administered on Days 1, 2 and 7. Behavioral evaluation was performed on Day 13. In the 7-hit TBI experiment (FIG. 8B), one group sustained TBI only (n=10 mice). The other groups received 8 doses (250 ug/mouse) via intraperitoneal injection of either IgG control (n=10 mice) or one of the following humanized cis pT231-tau monoclonal antibody variants C113 (n=10 mice), HT2 (n=10), HT3 (n=10), HT8 (n=10), HT10 (n=10), HT13 (n=10), HT18/HC2 (n=10). Treatment with IgG or humanized cis-pT231-tau monoclonal antibody was administered on Days 1, 2, 3, 5, 8, 10, 13 and 20. Behavioral evaluation was performed on Day 27. The elevated plus maze was used to assess anxiety/risk-taking behavior and carried out as described in Kondo et al, Nature 523, 431-436, 2015. Briefly, the elevated plus maze consists of two white open arms (30×5 cm) and two white closed arms of the same size with 15-cm-high walls, extended out opposite from each other from a central platform (decision zone) to create a plus shape. The entire apparatus is raised 38 cm above the floor (Lafayette Instruments). Mice are placed on the center platform of the maze, facing a closed arm, and allowed to explore the apparatus for 5 min. The maze is cleaned between subjects with a weak ethanol solution and dried. A computer-assisted video tracking system (Noldus Ethovision) recorded the total time spent in the center platform (decision zone), and the two closed or ‘safe’ arms and the two open or ‘aversive’ arms. Mice with lower levels of anxiety/risk-taking behavior spend less time in the open arms.

[3] = target: T1, cis P-tau (Homo sapiens, UniProt P10636); experiment: Elimination of cis P-tau in cultured neurons stressed by hypoxia; assay type: cell-based; design: endogenous in cells; conditions: 2.5 μg/ml, 5 μg/ml and 10 μg/ml
Method: as §1
Cultured neurons were subjected to neuron stress by hypoxia in the presence or absence of different concentration of humanized antibody variants, followed by immunoblotting analysis to analyze cis P-tau levels in the stressed neurons, the results of which are provided in FIGS. 2-4. FIG. 2 is an immunostaining image showing the ability of humanized cis pT231-tau monoclonal antibody variants to eliminate cis P-tau in neurons under hypoxic conditions. Cis P-tau levels are reported in red and blue reports nuclear staining (Hoechst) to represent all neurons in the experiment. […] Cis P-tau levels are reported in red and blue reports nuclear staining (Hoechst) to represent all neurons in the experiment. […] IgG is a negative control. The cis-pTau monoclonal antibody C113 serves as a positive control.

[4] = test system: mice (C57/BL6) after 7-hit repetitive TBI; experiment: 7-hit repetitive mild TBI in mice, elevated plus maze; assay type: in vivo; conditions: risk-taking behavior, HT13 chimera control = 1.0
Method: as §1, §2

[5] = target: T1, cis P-tau; experiment: Immunoblotting of CSF of live TBI patients; assay type: binding; design: The recognition of cis P-tau in the CSF of live TBI patients; from tissue; host or cells: cerebrospinal fluid of live traumatic brain injury patients; conditions: relative to control CSF samples
Source text: CSF pT231-tau is an early biomarker of traumatic brain injury (TBI). The recognition of cis P-tau in the CSF of live TBI patients by the humanized cis pT231-tau monoclonal antibody variants evaluated immunoblotting analyses using different humanized antibody variants.

[6] = test system: BCAS (bilateral common carotid artery stenosis) mice; experiment: 3 month treatment of BCAS mice with humanized cis mAbs (Y maze, NOR, Barnes maze); assay type: in vivo
Method: BCAS mice were treated with novel humanized cis mAbs (HT10 and HT18), murine cis mAb C113 (as described in, e.g., U.S. Pat. No. 9,688,747, positive control), mouse-human chimeric HT13 (positive control), or IgG (negative control). Behavioral changes were assay by Y-maze and novel object recognition (NOR) at 1 month after BCAS (FIG. 92A); by Y-maze and NOR at 3 months after BCAS (FIG. 92B); and by Barnes maze at 3 months after BCAS (FIG. 92C). *, p<0.05; **, p<0.01; ***, p<0.001; ****, p<0.0001.
As described above in Examples 1-4, we developed 225 humanized cis P-tau mAb variants and identified 10 top fully humanized cis mAb variants (HT1-4, HT6-10 and HT18) with the expected specificity and potency. […] In this experiment, we performed a 3 month treatment of BCAS (bilateral common carotid artery stenosis) mice with two humanized cis mAb variants, HT10 and HT18, along with murine cis mAb C113 (as described in, e.g., U.S. Pat. No. 9,688,747) and mouse-human chimeric HT13 as positive controls.

[7] = 3 months after BCAS surgery, Barnes maze

T1 sequence (P10636 1-441 isoform P10636-8): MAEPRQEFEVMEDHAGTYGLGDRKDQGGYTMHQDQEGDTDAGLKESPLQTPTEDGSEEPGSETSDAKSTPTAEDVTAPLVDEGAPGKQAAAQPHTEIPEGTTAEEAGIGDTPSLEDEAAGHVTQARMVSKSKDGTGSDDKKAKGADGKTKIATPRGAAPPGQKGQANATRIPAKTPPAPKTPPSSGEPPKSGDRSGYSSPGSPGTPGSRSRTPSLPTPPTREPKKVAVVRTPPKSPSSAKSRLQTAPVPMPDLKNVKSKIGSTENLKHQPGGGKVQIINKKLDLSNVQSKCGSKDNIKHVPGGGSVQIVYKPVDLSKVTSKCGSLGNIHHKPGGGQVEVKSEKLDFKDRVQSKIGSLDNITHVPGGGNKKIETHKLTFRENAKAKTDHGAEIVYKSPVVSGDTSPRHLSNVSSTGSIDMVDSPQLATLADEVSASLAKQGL

| Molecule | Kd [1] | Functional restoration 3-hit TBI [2] | elimination of cis P-tau in neurons under hypoxic conditions (images) [3] | Functional restoration 7-hit TBI [4] | rank in cis P-tau elimination assay (FIG. 4) [3] | detection of cis P-tau in CSF of live TBI patients [5] | VCID-like behavioral changes ([6]; 1 month after BCAS surgery) | VCID-like behavioral changes [6, 7] |
| --- | --- | --- | --- | --- | --- | --- | --- | --- |
| B1 | 1.83 nM | 1.5 | elimination of cis P-tau | – | – | – | – | – |
| B2 | 1.62 nM | 1.4 | elimination of cis P-tau | 1.7 | top four performing variants | – | – | – |
| B3 | 3.51 nM | 1.7 | elimination of cis P-tau | 2.0 | – | – | – | – |
| B4 | 7.68 nM | – | elimination of cis P-tau | 1.4 | top four performing variants | robust detection of cis P-tau as early as three days after TBI | – | – |
| B5 | 1.77 nM | 1.2 | elimination of cis P-tau | 1.3 | top four performing variants | robust detection of cis P-tau as early as three days after TBI | effective in preventing VCID-like behavioral changes | effective in preventing VCID-like behavioral changes |
| B6 | 1.91 nM | 1.0 | elimination of cis P-tau | 1.1 | top four performing variants | robust detection of cis P-tau as early as three days after TBI | effective in preventing VCID-like behavioral changes | effective in preventing VCID-like behavioral changes |
